{
  "source": "paper doi:10.1101/2024.09.12.612748",
  "about": "“Analysis of polyclonal and monoclonal antibody to the influenza virus nucleoprotein in different oligomeric states” (bioRxiv, 2024)",
  "key": {"[1]": {"biological_target": "T1, NP in H1N1 viral lysate (A/Puerto Rico/8/34) (Influenza A virus (strain A/Puerto …, UniProt P03466))", "T1 construct": "also called viral NP; NP from lysed influenza virus", "assay": "immunoblot", "settings": "one partner purified"}, "[2]": {"biological_target": "T2, recombinant NP of influenza A/PR/8/34 (H1N1) purified from bacteria (Influenza A virus (strain A/Puerto …, UniProt P03466))", "T2 construct": "source: E. coli Rosetta 2 (DE3), purified (His GraviTrap TALON)", "assay": "immunoblot", "settings": "both partners purified"}, "[3]": {"biological_target": "T3, recombinant nucleoprotein (NP) from influenza A/Brisbane/10/2007 (H3N2) (Influenza A virus A/Brisbane/10/2007 …)", "T3 construct": "also called rNP; rNP-A", "assay": "BLI; Octet Red 96; […] (AMC) […] (6.25–200 nM), 1X PBS, association 300 s, dissociation 3,600 s, global 1:1 fit", "settings": "both partners purified"}},
  "data": [
    {"binder": "anti-NP mouse monoclonal antibody HB65 (antibody, V domains shown, also called mAb HB65; IgG HB65; copies: 2 + 2) VH: EVKLVESGGALVNPGGSLKLSCAASGFIFSSYAMSWIRQTPEKRLEWVASTSGGGTTYYLDSVRGRFTISRDNARRILYLQMTSLRSEDTAIYFCGRDGNWFTSWGQGTLVTVSI VL: NIVMTQSPKSMSMSVGERVTLTCKASENVVTYVSWYQQKPEQSPKLLIYGASNRYTGVPDRFTGSGSATDFTLTISSVQAEDLADYHCGQGYSYPYTFGGGTKLEIK", "values": [
      {"measurement": "binding result", "setting": "[1]", "result": "binds"},
      {"measurement": "binding result", "setting": "[2]", "result": "binds"},
      {"measurement": "Kd", "setting": "[3]", "result": "120 ± 21", "unit": "nM"}
    ]}
  ]
}
